Data taken from paper PMC9964033.

Tests used:
[1] = biological target: Wdr77; test: interactome comparison (volcano plot); settings: CPEB3 and S240-242A expressed in mouse neuroblastoma N2A cells; read off a plot
[2] = biological target: Gls; test: interactome comparison (volcano plot); settings: CPEB3 and S240-242A expressed in mouse neuroblastoma N2A cells; read off a plot

other: Log2(Fold Change (Mut/FL)) [1]: -4.2
other: Log2(Fold Change (Mut/FL)) [2]: 2.8
Substance: CPEB3 (full-length), expressed in mouse neuroblastoma N2A cells (from UniProt Q7TN99) S240A; S241A; S242A
